Reference: patent US20140296491A1 (MILTENYI BIOTECH, published 2014)

Experiments:
[1] = target: T1, human CD8 on CD8+ cells of human PBMCs (human, UniProt P01732 22-235); assay: phage display selection on hCD8a with EDTA elution, then clone screening
T1 construct: whole, on cells; Immunization and panning used recombinant hCD8a (Ser 22-Asp 182, His tag); The flow cytometry used native CD8 on PBMCs; also called hCD8; hCD8a
Experimental: Flow cytometry results of screened clones of library 2a from EDTA eluates after panning cycle IIb with triple depletion of Ca2+ independent hCD8a binders. After exclusion of dead cells and cell debris CD8+ cells were identified as a CD3+/CD4− cell population. hCD8-specific Fabs were detected by anti-polyhistidine-PE (anti-HIS-PE). Mean fluorescence intensities (MFI) of anti-HIS-PE staining were plotted to evaluate the influence of 10 mM EDTA. 75_A1 (uninoculated medium) and 75_C1 (anti-MUC1 scFv expressing clone) were negative controls, while 75_B1 (CD8 BW135/80) served as positive control. FIG. 7: MFI before and after addition of EDTA. FIG. 8: MFI ratio (−)EDTA/(+)EDTA. FIG. 9: Dot plots of clone KRR75_G1 before and after the addition of 10 mM EDTA.
Variations in panning process were tested to direct the selection towards Ca2+ dependent binding. […]
Clones generated by different selection procedures and stages were characterized upon hCD8 specificity and potential Ca2+ dependent binding. […] Supernatants of these cultures were analyzed for the presence hCD8 specific Fabs using a flow cytometric staining assay in the Ca2+ containing buffer HBSS (Hank's balanced salt solution) +0.5% BSA. […] Bound Fabs were detected via the polyhistidine tag of the Fab and an anti-polyhistidine tag-fluorochrome conjugate. […]

[2] = target: T1, human CD8 on CD8+ cells of human PBMCs; assay: flow cytometry on human CD8+ cells, before and after EDTA
Experimental: FIGS. 10, 11, and 12 show flow cytometry results of screened clones after panning cycle IIIb. Flow cytometry results of screened clones (see 4.4.2.2) of library 1a and 2a from EDTA eluates after panning cycle IIIb. After exclusion of dead cells and cell debris CD8+ cells were identified as a CD3+/CD4− cell population. hCD8 specific Fabs were detected by anti-His-PE. Mean fluorescence intensities (MFI) of anti-His-PE staining were plotted to evaluate the influence of 10 mM EDTA on staining with certain Fab clones. 77_A1 (uninoculated medium) and 77_C1 (anti-MUC1 scFv expressing clone) were negative controls, while 77_B1 (CD8 BW135/80) served as positive control for hCD8 staining. FIG. 10: MFI before and after addition of EDTA. FIG. 11: MFI ratio (−)EDTA/(+)EDTA. FIG. 12: Dot plot of clone KRR77_D1 before and after the addition of 10 mM EDTA.
Clones generated by different selection procedures and stages were characterized upon hCD8 specificity and potential Ca2+ dependent binding. Therefore, Fab expressions of single clones were performed in a microtiter plate format (150 μL). Supernatants of these cultures were analyzed for the presence hCD8 specific Fabs using a flow cytometric staining assay in the Ca2+ containing buffer HBSS (Hank's balanced salt solution) +0.5% BSA. […] Bound Fabs were detected via the polyhistidine tag of the Fab and an anti-polyhistidine tag-fluorochrome conjugate. […]

T1 sequence (P01732 22-235): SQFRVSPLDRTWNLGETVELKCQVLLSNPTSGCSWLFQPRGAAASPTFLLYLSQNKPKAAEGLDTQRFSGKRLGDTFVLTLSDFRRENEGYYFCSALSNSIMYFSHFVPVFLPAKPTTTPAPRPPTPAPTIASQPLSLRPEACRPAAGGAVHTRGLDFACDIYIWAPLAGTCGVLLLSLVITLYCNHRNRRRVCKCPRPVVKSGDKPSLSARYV

binding result [1] | binding result [2] | Binder
binds |  | chimeric recombinant Fab CD8 KRR75_G1 (Fab, V domains shown, also called clone KRR75_G1) VH: EVQLQQSGPELVKPGASVKMSCKASGYTFTDYVISWMKQRTGQGLEWIGEIYPGSGSDYYNEKFKGKATLTADKSSNTAYMQLSSLTSEDSAVYFCARWGITDYFDVWGAGTTVTVSS VL: ETTVTQSPASLSMAIGEKVTIRCITSTDIDDDMNWYQQKPGEPPKLLISEGNTLRPGVPSRFSSSGYGTDFVFTIENMLSEDVADYYCLQSDNLPFTFGSGTKLEIK
 | binds | chimeric recombinant Fab CD8 KRR77_D1 (Fab, V domains shown, also called clone KRR77_D1) VH: QVQLKESGPGLVQPSQSLSITCTVSGFSLTSYGVHWVRQSPGKGLEWLGVIWRGGSTDYNAAFMSRLSITKDNSKSQVFFKMNSLQADDTAIYYCAKNSITPFAYWGQGTLVTVSA VL: ETTVTQSPASLSMAIGEKVTIRCITSTDIDDDMNWYQQKPGEPPKLLISEGNTLRPGVPSRFSSSGYGTDFVFTIENMLSEDVADYYCLQSDNLPFTFGSGTKLEIK
